Publication PMC8766848, “The Structural Basis of Babesia orientalis Lactate Dehydrogenase” (Frontiers in Cellular and Infection Microbiology, 2022)

Key:
purified protein [1] = substrate: C[C@H](O)C(=O)O; assay: purified protein; conditions: NAD+
purified protein [2] = substrate: NC(=O)c1ccc[n+]([C@@H]2O[C@H](COP(=O)([O-])OP(=O)(O)OC[C@H]3O[C@@H](n4cnc5c(N)ncnc54)[C@H](O)[C@@H]3O)[C@@H](O)[C@H]2O)c1; assay: purified protein; conditions: varied: cofactor
purified protein [3] = substrate: CC(=O)C(=O)O; assay: purified protein; type: biochemical, Babesia orientalis; conditions: NADH
purified protein [4] = substrate: NC(=O)C1=CN([C@@H]2O[C@H](COP(=O)(O)OP(=O)(O)OC[C@H]3O[C@@H](n4cnc5c(N)ncnc54)[C@H](O)[C@@H]3O)[C@@H](O)[C@H]2O)C=CC1; assay: purified protein; type: biochemical, Babesia orientalis; conditions: varied: cofactor
[5] = substrate: CC(=O)c1ccc[n+]([C@@H]2O[C@H](COP(=O)([O-])OP(=O)(O)OC[C@H]3O[C@@H](n4cnc5c(N)ncnc54)[C@H](O)[C@@H]3O)[C@@H](O)[C@H]2O)c1; assay: enzyme kinetics (Km), used as synthetic cofactor, lactate to pyruvate; type: biochemical, Babesia orientalis; conditions: varied: cofactor
Excerpt: enzyme kinetics (Km), used as synthetic cofactor, lactate to pyruvate on Babesia orientalis lactate dehydrogenase (BoLDH) | BoLDH catalyzes the conversion of lactate to pyruvate using synthetic APAD^+ instead of NAD^+ as a cofactor

B1: Babesia orientalis lactate dehydrogenase (BoLDH) (Babesia orientalis) (protein)
chain: MLKGFLSTMSPAVRRNKISLIGAGNIGGVMAYLAQLKELGDVVLFDIAPKLGEAKALDIMHANAIYDTAHKAIGTANYEDIADSDVCIITAGLAKLPNKKDEEWSRDDLVAPNSKIMFTIGDNIKKYAPNAFVICITNPLDVMVKMLLKATGFPKNKVVGMGGLLDSSRMCHYIADKLNVNPRYVHGSCIGGHGDSMIPLVNHVTVNGIPIQLFVERGDITQAELDKIAQRTIGSGMELVQLYGNGSAYFAPATAAIEMASAYLNDKKSVIVCSCYLEGEYGHSDVYLGTPAIIGANGIEKIITLKLSSEEQAKLDASVKEIMRLEALAG
notes: full-length ORF (330 residues), N-terminal His6 tag, recombinant rBoLDH
Purified protein [1]
  Km: 166 ± 24.2 µM
  kcat: 30.5 s⁻¹
  kcat/Km: 184000 M⁻¹ s⁻¹
Purified protein [2]
  Km: 493 ± 69.2 µM
  kcat: 21.5 s⁻¹
  kcat/Km: 43600 M⁻¹ s⁻¹
Purified protein [3]
  Km: 102 ± 19.2 µM
  kcat: 56.5 s⁻¹
  kcat/Km: 554000 M⁻¹ s⁻¹
Purified protein [4]
  Km: 126 ± 19.9 µM
  kcat: 115 s⁻¹
  kcat/Km: 913000 M⁻¹ s⁻¹
[5]
  Km: 395 ± 49.9 µM
  kcat: 62.3 s⁻¹
  kcat/Km: 157000 M⁻¹ s⁻¹
